This data set relates to Saccharomyces cerevisiae. Kind of data set: protein stability index of tFT-peptide fusion (C-terminal peptide) (PSI (0-1 scale)); higher = more stable (slower turnover). Conditions: temperature: 30 C. Here is the method: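 MPS profiling in S. cerevisiae of the yeast C-terminome library: the last 12 aa of each annotated ORF are fused to the C-terminus of a sfGFP-mCherry timer, after a GGGS linker. Cells are FACS-sorted into 8 mCherry/sfGFP bins and deep-sequenced. PSI runs from 0 (unstable) to 1 (stable); wild type and das1Δ backgrounds, two technical replicates each.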

Where [1] appears, read: genetic background: das1 deletion.

± gives the standard deviation of the averaged measurements.

For the sequence MEDILDETTELD [ATG40 C-terminal 12 aa], the protein stability index came out at 0.7155 ± 0.0025 under setting [1] and 0.715 ± 0.072 (genetic background: wild type).
As to MEKENSGLIAFS [HOS2 C-terminal 12 aa], the protein stability index is, setting by setting: under setting [1], 0.7089 ± 0.0061; (genetic background: wild type) 0.7064 ± 0.0059.
For the sequence MELWYTCLSKNL [YCR050C C-terminal 12 aa], the protein stability index by setting is: under setting [1], 0.694 ± 0.048; (genetic background: wild type) 0.671 ± 0.034.
For MERRARQQRGQD [MND2 C-terminal 12 aa], in that order: 0.71114 ± 0.0003 and 0.717 ± 0.046.
The sequence MFGVHDKSVIIE [NSE5 C-terminal 12 aa] came in with a protein stability index under setting [1] of 0.692 ± 0.058 and a protein stability index (genetic background: wild type) of 0.7 ± 0.032.
For MFKFNVHKKSKV [TAD2 C-terminal 12 aa], the protein stability index was 0.72 ± 0.015 under setting [1] and 0.758 ± 0.048 (genetic background: wild type).
On the same counts, the results for MGDEYVSSDEDF [HEF3 C-terminal 12 aa] are 0.7279 ± 0.0024 and 0.686 ± 0.054.
As for MGISSNSFQGVN [KDX1 C-terminal 12 aa], the protein stability index reads like this: under setting [1], 0.70379 ± 8.7e-05; (genetic background: wild type) 0.6626 ± 0.0032.
Turning to MGVFILFLDYVG [UFE1 C-terminal 12 aa], the protein stability index is, setting by setting: under setting [1], 0.277 ± 0.032; (genetic background: wild type) 0.314 ± 0.013.
Consider MKGPAALWDVQF [ARP9 C-terminal 12 aa], for which the protein stability index by setting is: under setting [1], 0.724 ± 0.012; (genetic background: wild type) 0.744 ± 0.044.
For MKRSASYTGAKV [TPS2 C-terminal 12 aa], in that order: 0.7 ± 0.02 and 0.709 ± 0.043.
Take MLCTLTGYQNND [NUP192 C-terminal 12 aa]: the protein stability index runs as follows: under setting [1], 0.7282 ± 0.0051; (genetic background: wild type) 0.685 ± 0.017.
On the same counts, the results for MPGGMPGMPGMM [HSP60 C-terminal 12 aa] are 0.7 ± 0.00077 and 0.709 ± 0.0041.
Regarding MQRVSTQHEKET [PMA1 C-terminal 12 aa], the protein stability index was 0.715 ± 0.0091 under setting [1] and 0.698 ± 0.022 (genetic background: wild type).
Turning to MRLTHKSKKKMK [SUE1 C-terminal 12 aa], the protein stability index under setting [1] turned out to be 0.72 ± 0.026 and the protein stability index (genetic background: wild type) stood at 0.695 ± 0.0075.
On to MSKLGLIPKDFQ [HIS4 C-terminal 12 aa], for which the protein stability index is, setting by setting: under setting [1], 0.6931 ± 0.0056; (genetic background: wild type) 0.707 ± 0.036.
On to MSLLGLVPVDRM [MSR1 C-terminal 12 aa], for which the protein stability index came out at 0.696 ± 0.00089 under setting [1] and 0.688 ± 0.023 (genetic background: wild type).
In the case of MTGILKDYSHRV [TFA2 C-terminal 12 aa], the protein stability index came to 0.715 ± 0.0083 under setting [1] and 0.723 ± 0.063 (genetic background: wild type).
In the case of MVNEWIHGGFSL [PRC1 C-terminal 12 aa], the protein stability index under setting [1] came to 0.73 ± 0.025 and the protein stability index (genetic background: wild type) is 0.702 ± 0.019.
On the same counts, the results for MYGLGIRDCCIM [RCY1 C-terminal 12 aa] are 0.7921 ± 0.0075 and 0.776 ± 0.088.
Regarding NAIKNWTGVNVK [MIC26 C-terminal 12 aa], the protein stability index came out at 0.7 ± 0.0014 under setting [1] and 0.695 ± 0.0088 (genetic background: wild type).
For NAKKGSKIEEIE [PTC3 C-terminal 12 aa], the protein stability index reads like this: under setting [1], 0.6731 ± 0.0047; (genetic background: wild type) 0.6656 ± 0.0058.
Sequence NCIETFVAEKTT [SRB6 C-terminal 12 aa] came in with a protein stability index under setting [1] of 0.679 ± 0.014 and a protein stability index (genetic background: wild type) of 0.669 ± 0.0071.
Consider NDGTFLDEVTKN [OPI10 C-terminal 12 aa], for which the protein stability index runs as follows: under setting [1], 0.6922 ± 0.0066; (genetic background: wild type) 0.687 ± 0.03.
Regarding NDKGEQVVGGNE [TMA16 C-terminal 12 aa], the protein stability index by setting is: under setting [1], 0.663 ± 0.042; (genetic background: wild type) 0.717 ± 0.04.
As to NDLITYMTKAAK [CYC7 C-terminal 12 aa], the protein stability index reads like this: under setting [1], 0.722 ± 0.031; (genetic background: wild type) 0.756 ± 0.14.
NEDSMEIDDDLD [HSP104 C-terminal 12 aa]: the protein stability index worked out at 0.6988 ± 0.0014 under setting [1] and 0.665 ± 0.021 (genetic background: wild type).
On the same counts, the results for NEKENSLSLSRL [MGT1 C-terminal 12 aa] are 0.7183 ± 0.0017 and 0.752 ± 0.058.
NELRMSSSSLTN [VHS1 C-terminal 12 aa]: the protein stability index reads like this: under setting [1], 0.6718 ± 0.0013; (genetic background: wild type) 0.693 ± 0.0083.
Regarding NERGLSSNYQTI [FMP42 C-terminal 12 aa], the protein stability index amounted to 0.7217 ± 0.0025 under setting [1] and 0.6736 ± 0.0013 (genetic background: wild type).
For NGKTIKDATDNK [COX19 C-terminal 12 aa], in that order: 0.669 ± 0.015 and 0.6957 ± 0.0059.
Regarding NGRYIDTEFESM [LCB4 C-terminal 12 aa], the protein stability index by setting is: under setting [1], 0.6854 ± 0.0012; (genetic background: wild type) 0.681 ± 0.022.
With NIRIVNGLQNTR [TIM8 C-terminal 12 aa], the protein stability index came to 0.712 ± 0.014 under setting [1] and 0.669 ± 0.011 (genetic background: wild type).
For NKIANFVKNAKK [TRP1 C-terminal 12 aa], the protein stability index runs as follows: under setting [1], 0.708 ± 0.02; (genetic background: wild type) 0.701 ± 0.029.
In the case of NKLKTLLAKIFD [IPI1 C-terminal 12 aa], the protein stability index reads like this: under setting [1], 0.708 ± 0.02; (genetic background: wild type) 0.699 ± 0.053.
On the same counts, the results for NPGFIVEKRTID [MRPL33 C-terminal 12 aa] are 0.697 ± 0.035 and 0.737 ± 0.0098.
Consider NPKNLINDVRRT [CVM1 C-terminal 12 aa], for which the protein stability index was 0.704 ± 0.011 under setting [1] and 0.635 ± 0.025 (genetic background: wild type).
NPPISVSVTGDE [SRT1 C-terminal 12 aa] showed a protein stability index under setting [1] of 0.687 ± 0.0084 and a protein stability index (genetic background: wild type) of 0.6978 ± 0.0036.
Turning to NPWGGYSQVQSK [COX5A C-terminal 12 aa], the protein stability index reads like this: under setting [1], 0.728 ± 0.02; (genetic background: wild type) 0.688 ± 0.018.
On the same counts, the results for NQGSDVSFNEED [TOP2 C-terminal 12 aa] are 0.709 ± 0.02 and 0.685 ± 0.045.
With NQIIQARLKDLE [DNF3 C-terminal 12 aa], the protein stability index runs as follows: under setting [1], 0.686 ± 0.021; (genetic background: wild type) 0.6964 ± 0.0035.
For NQKKKFKMEFRG [SAP30 C-terminal 12 aa], in that order: 0.6956 ± 0.0027 and 0.665 ± 0.0075.
Consider NRKIARMRHSKR [NUP1 C-terminal 12 aa], for which the protein stability index by setting is: under setting [1], 0.706 ± 0.022; (genetic background: wild type) 0.7119 ± 0.007.
On to NRSSKIVSIRED [CPR8 C-terminal 12 aa], for which the protein stability index was determined as 0.702 ± 0.03 under setting [1] and 0.714 ± 0.028 (genetic background: wild type).
For the sequence NTDHKAGRSHLQ [PTC2 C-terminal 12 aa], the protein stability index reads like this: under setting [1], 0.713 ± 0.013; (genetic background: wild type) 0.668 ± 0.038.
Turning to NTEPPEAPAATN [AFG3 C-terminal 12 aa], the protein stability index reads like this: under setting [1], 0.73 ± 0.032; (genetic background: wild type) 0.668 ± 0.028.
Regarding NTGSKKSVPTSS [AQY3 C-terminal 12 aa], the protein stability index by setting is: under setting [1], 0.7037 ± 0.0017; (genetic background: wild type) 0.732 ± 0.068.
For NTTHYNDTLLKQ [PHO3 C-terminal 12 aa], in that order: 0.738 ± 0.0097 and 0.6619 ± 0.0058.
With NYLVYHIEEENH [MNN9 C-terminal 12 aa], the protein stability index stood at 0.673 ± 0.031 under setting [1] and 0.645 ± 0.052 (genetic background: wild type).
For the sequence PAAWRALTQYIS [PTH1 C-terminal 12 aa], the protein stability index runs as follows: under setting [1], 0.7186 ± 0.0024; (genetic background: wild type) 0.348 ± 0.029.
Take PCALYFKDHTAY [HUA2 C-terminal 12 aa]: the protein stability index reads like this: under setting [1], 0.699 ± 0.021; (genetic background: wild type) 0.7209 ± 0.0011.
In the case of PDDFEFGDDDFM [HCR1 C-terminal 12 aa], the protein stability index runs as follows: under setting [1], 0.712 ± 0.031; (genetic background: wild type) 0.763 ± 0.041.
As for “PEHPGNKRAGSG [YER145C-A C-terminal 12 aa]”, the protein stability index runs as follows: under setting [1], 0.6885 ± 0.00081; (genetic background: wild type) 0.6979 ± 0.0024.
For the sequence PFDYSDIPAADI [GPI10 C-terminal 12 aa], the protein stability index by setting is: under setting [1], 0.714 ± 0.023; (genetic background: wild type) 0.698 ± 0.019.
Take PFEDKFEIHDER [OPY2 C-terminal 12 aa]: the protein stability index worked out at 0.74255 ± 0.00063 under setting [1] and 0.7692 ± 0.00091 (genetic background: wild type).
Regarding PIDPKAFTFDSR [YCL012C C-terminal 12 aa], the protein stability index is, setting by setting: under setting [1], 0.73549 ± 0.00064; (genetic background: wild type) 0.73 ± 0.016.
Consider PIQDFIFNLVGE [VTC3 C-terminal 12 aa], for which the protein stability index is, setting by setting: under setting [1], 0.687 ± 0.0086; (genetic background: wild type) 0.6981 ± 0.0027.
For PKSFVPRDIEKK [YGR265W C-terminal 12 aa], in that order: 0.695 ± 0.018 and 0.701 ± 0.056.
On to PLFADYLNKNLN [KTI12 C-terminal 12 aa], for which the protein stability index under setting [1] came out at 0.7162 ± 0.0014 and the protein stability index (genetic background: wild type) was 0.671 ± 0.014.
In the case of PLQWLSTWDIAP [PMT6 C-terminal 12 aa], the protein stability index under setting [1] stood at 0.787 ± 0.02 and the protein stability index (genetic background: wild type) was determined as 0.757 ± 0.021.
On to PLSYDPLGNLIR [TSR3 C-terminal 12 aa], for which the protein stability index runs as follows: under setting [1], 0.7339 ± 0.0027; (genetic background: wild type) 0.728 ± 0.061.
Regarding PLTLISLLFAFI [YPS1 C-terminal 12 aa], the protein stability index reads like this: under setting [1], 0.619 ± 0.021; (genetic background: wild type) 0.612 ± 0.0015.
For PNEFLRDQSTDI [APL5 C-terminal 12 aa], in that order: 0.707 ± 0.031 and 0.66 ± 0.02.
For PQCGQVLSKGST [YGL132W C-terminal 12 aa], in that order: 0.703 ± 0.0092 and 0.69 ± 0.063.
On to PQMARKQRGHIG [SDS23 C-terminal 12 aa], for which the protein stability index came out at 0.678 ± 0.024 under setting [1] and 0.681 ± 0.0087 (genetic background: wild type).
For PSGNIVMERLDE [UBX3 C-terminal 12 aa], in that order: 0.6901 ± 0.0013 and 0.64 ± 0.021.
With PSIARILEFMQS [SAY1 C-terminal 12 aa], the protein stability index by setting is: under setting [1], 0.729 ± 0.013; (genetic background: wild type) 0.654 ± 0.09.
For PVFTASQLRFAW [ESA1 C-terminal 12 aa], in that order: 0.738 ± 0.018 and 0.7148 ± 0.0046.

The record behind these values is the supplement of paper PMC10724198.
